# How the values were obtained:
# hfVPACa = assay: cAMP accumulation (LANCE cAMP assay) in COS-7 cells transiently transfected with hfVPACa; type: cell-based, inshore hagfish (Eptatretus burgeri); details: 100 nM peptide, 30 min, at least 4 experiments in duplicates
# Experimental: To investigate the functional properties of the proteins encoded by the agnathan VPAC receptor cDNAs, various vertebrate secretin superfamily peptides at a 100 nM concentration were employed to determine their abilities to stimulate cAMP production in transiently transfected COS-7 cells with hfVPACa or hfVPACb. As jlpVPAC was indicated to be orthologous to hfVPACa by phylogenetic analysis, only the hfVPAC receptors were tested (Figure 4). […] The hfVPACa was further studied using graded concentrations of VIP/PACAP peptides from various vertebrates including sea lamprey (Figure 4C and 4D).
# Figure 4 Functional characterization of hfVPACa and hfVPACb. Intracellular cAMP accumulation in response to 100 nM vertebrate superfamily peptides on COS-7 cells transiently transfected with (A) hfVPACa and (B) hfVPACb. Peptide species: slp, sea lamprey; gf, goldfish; h, human; o, ovine; zf, zebrafish; x, Xenopus; ct, catfish and cp, carp. Data represent the mean ± S.E.M. of at least 4 experiments performed in duplicates, p<0.01 is denoted by “*”. […] Data are expressed as the mean ± S.E.M. of at least 6 experiments performed in duplicates. […] Data are expressed as the mean ± S.E.M. of at least 4 experiments. RFU, relative fluorescence units. (G) Shown are representative of confocal fluorescence images of CHO-K1 cells expressing (i) hfVPACa-pEYFP, (ii) hfVPACb-pEYFP and (iii) pEYFP-N1.
# African green monkey kidney (COS-7) and Chinese hamster ovary (CHO-K1) cells (ATCC, Manassas, VA) were cultured in 10% FBS/100 U/ml Penicillin/[…] Streptomycin supplemented DMEM and MEM respectively in a 5% (v/v) CO2 humidified chamber at 37°C and passaged twice per week using Trypsin-EDTA (TE) (Invitrogen) on Nunc^TM Surface (Nunc, Denmark) tissue culture flasks. […] For cAMP assays, COS-7 cells were stimulated for 30 mins with either fixed ([…]) or varying (10^−6 to 10^−12 M) concentrations before taking measurements using the LANCE cAMP assay kit (Perkin-Elmer, Waltham, MA) in the Victor x4 multilabel reader (Perkin-Elmer) according to the manufacturer's protocol. […]
# [1] = target: inshore hagfish (Eptatretus burgeri) VPAC receptor b (inshore hagfish (Eptatretus burgeri))
# [2] = target: inshore hagfish (Eptatretus burgeri) VPAC receptor a (inshore hagfish (Eptatretus burgeri))
# [3] = target: inshore hagfish (Eptatretus burgeri) VPAC receptor a (inshore hagfish (Eptatretus burgeri)); remark: listed apart in the source
"intracellular cAMP accumulation (LANCE cAMP assay) in COS-7 cells transiently expressing hfVPACa, graded peptide concentrations 10^-6 to 10^-12 M, EC50 [3] [nM]",Substance,ability to stimulate cAMP production at a fixed peptide concentration (hfVPACa),other results
5.92,sea lamprey PACAP-27 (peptide),–,"intracellular calcium elevation (Fluo-4 calcium assay) in CHO-K1 cells transiently expressing hfVPACb, graded peptide concentrations 10^-6 to 10^-12 M, EC50 [1]: 27.8 nM; intracellular calcium elevation (Fluo-4 calcium assay) in CHO-K1 cells transiently expressing hfVPACa, graded peptide concentrations 10^-6 to 10^-12 M, EC50 [2]: 1.39 nM"
1.74,human VIP (peptide),–,–
0.895,ovine PACAP-27 (peptide),–,–

# The remaining lines, values behind:
Substance,"intracellular cAMP accumulation (LANCE cAMP assay) in COS-7 cells transiently expressing hfVPACa, graded peptide concentrations 10^-6 to 10^-12 M, EC50 [3] [nM]",ability to stimulate cAMP production at a fixed peptide concentration (hfVPACa),other results
"glucagon: Glucagon (goldfish), synthetic peptide (HSEGTFSNDYSKYLETRRAQDFVEWLMNS; Glucagon; UniProt P79695 50-78, looked up)",–,weakly or unable to do so,–
GLP-2,–,weakly or unable to do so,–
GLP-1,–,weakly or unable to do so,–

# Source: article PMC3434177, “Agnathan VIP, PACAP and Their Receptors: Ancestral Origins of Today's Highly Diversified Forms” (PLoS ONE, 2012)
